{"source": "the supplement of paper PMC10126150", "note": "± gives the standard deviation of the averaged measurements.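 Further: ATP exposure 15 min at 22 °C before imaging.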", "data": [{"test_system": "ATP", "test": "switch fluorescence ratio, 500 uM ATP over buffer (Cy3 cluster intensity, sum of 5 cycles each) (fold (ratio)); higher = stronger signal-on switching upon ATP binding; sequences stand for … in TCGTCGGCAGCGTCAGATGTGTATAAGAGACAGTTTTTTTTTTTTTTTTTTTTTTTTT…TC", "conditions": "aptamer strand: ATP DNA aptamer (quencher-CACCTGGGGGAGTATTGCGGAGGAAGG + anchor), 100 nM annealed; ATP concentration: 500 uM", "outline": "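For every switch-domain sequence, the fluorescence ratio is the mean of per-cluster values, each being summed target-cycle Cy3 intensity over summed buffer-cycle Cy3 intensity. Clusters outside 100-1000 RFU were excluded. On a modified Illumina MiSeq flow-cell, the Cy3-labelled switching-strand clusters were annealed to 100 nM quencher-labelled ATP aptamer, imaged in selection buffer and then after 15 min with 500 uM ATP at 22 °C. Five such cycles were run, with NaOH stripping and re-annealing between them.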", "values": [{"sequence": "TTGTCGGTCT", "switch fluorescence ratio": "0.972 ± 0.018"}, {"sequence": "TTGTCTATGA", "switch fluorescence ratio": "0.986 ± 0.028"}, {"sequence": "TTGTCTTTTT", "switch fluorescence ratio": "0.998 ± 0.015"}, {"sequence": "TTGTGCAAAT", "switch fluorescence ratio": "1.009 ± 0.006"}, {"sequence": "TTGTGCTGGT", "switch fluorescence ratio": "1 ± 0.033"}, {"sequence": "TTGTGCTGTA", "switch fluorescence ratio": "1.02 ± 0.013"}, {"sequence": "TTGTGCTTAA", "switch fluorescence ratio": "0.989 ± 0.052"}, {"sequence": "TTGTGCTTGT", "switch fluorescence ratio": "0.983 ± 0.019"}, {"sequence": "TTGTGGAATG", "switch fluorescence ratio": "1.015 ± 0.0094"}, {"sequence": "TTGTGGCCAT", "switch fluorescence ratio": "0.974 ± 0.022"}, {"sequence": "TTGTGGCGTG", "switch fluorescence ratio": "1 ± 0.034"}, {"sequence": "TTGTGGGGCA", "switch fluorescence ratio": "1.02 ± 0.021"}, {"sequence": "TTGTGGGGTG", "switch fluorescence ratio": "1.01 ± 0.044"}, {"sequence": "TTGTGGTTTC", "switch fluorescence ratio": "1.01 ± 0.017"}, {"sequence": "TTGTGTAGGC", "switch fluorescence ratio": "0.984 ± 0.025"}, {"sequence": "TTGTGTCTTT", "switch fluorescence ratio": "0.986 ± 0.017"}, {"sequence": "TTGTGTGTAT", "switch fluorescence ratio": "0.992 ± 0.017"}, {"sequence": "TTGTGTTCTT", "switch fluorescence ratio": "1.01 ± 0.026"}, {"sequence": "TTGTGTTTAG", "switch fluorescence ratio": "1.016 ± 0.0044"}, {"sequence": "TTGTGTTTGG", "switch fluorescence ratio": "0.992 ± 0.014"}, {"sequence": "TTGTTAACTT", "switch fluorescence ratio": "0.985 ± 0.017"}, {"sequence": "TTGTTAGATG", "switch fluorescence ratio": "1.011 ± 0.0066"}, {"sequence": "TTGTTAGGAA", "switch fluorescence ratio": "1.01 ± 0.02"}, {"sequence": "TTGTTAGTT", "switch fluorescence ratio": "1.02 ± 0.03"}, {"sequence": "TTGTTATCCG", "switch fluorescence ratio": "0.964 ± 0.048"}, {"sequence": "TTGTTATGAT", "switch fluorescence ratio": "1.01 ± 0.018"}, {"sequence": "TTGTTATTCG", "switch fluorescence ratio": "1.01 ± 0.087"}, {"sequence": "TTGTTCCAGC", "switch fluorescence ratio": "0.985 ± 0.047"}, {"sequence": "TTGTTCCCGT", "switch fluorescence ratio": "0.9839 ± 0.0013"}, {"sequence": "TTGTTCCTTG", "switch fluorescence ratio": "1.01 ± 0.022"}, {"sequence": "TTGTTCGCCT", "switch fluorescence ratio": "1.02 ± 0.011"}, {"sequence": "TTGTTCTCGC", "switch fluorescence ratio": "1.02 ± 0.048"}, {"sequence": "TTGTTGAAAT", "switch fluorescence ratio": "1.03 ± 0.074"}, {"sequence": "TTGTTGAGGA", "switch fluorescence ratio": "1.01 ± 0.028"}, {"sequence": "TTGTTGAGGC", "switch fluorescence ratio": "1.06 ± 0.1"}, {"sequence": "TTGTTGATTA", "switch fluorescence ratio": "0.9935 ± 0.0089"}, {"sequence": "TTGTTGCAAG", "switch fluorescence ratio": "1.013 ± 0.0079"}, {"sequence": "TTGTTGCTTG", "switch fluorescence ratio": "1.02 ± 0.028"}, {"sequence": "TTGTTGGCGG", "switch fluorescence ratio": "0.994 ± 0.025"}, {"sequence": "TTGTTGGGCA", "switch fluorescence ratio": "1.01 ± 0.032"}, {"sequence": "TTGTTGGTAG", "switch fluorescence ratio": "1.03 ± 0.031"}, {"sequence": "TTGTTGTGGT", "switch fluorescence ratio": "0.987 ± 0.032"}, {"sequence": "TTGTTTAATT", "switch fluorescence ratio": "0.979 ± 0.022"}, {"sequence": "TTGTTTATAT", "switch fluorescence ratio": "0.9853 ± 0.0053"}, {"sequence": "TTGTTTATTT", "switch fluorescence ratio": "1.02 ± 0.032"}, {"sequence": "TTGTTTCATG", "switch fluorescence ratio": "1.01 ± 0.025"}, {"sequence": "TTGTTTCGGG", "switch fluorescence ratio": "0.978 ± 0.018"}, {"sequence": "TTGTTTGCAA", "switch fluorescence ratio": "1.52 ± 0.74"}, {"sequence": "TTGTTTGGGG", "switch fluorescence ratio": "0.998 ± 0.026"}, {"sequence": "TTGTTTGTGA", "switch fluorescence ratio": "0.992 ± 0.011"}, {"sequence": "TTGTTTGTTG", "switch fluorescence ratio": "0.994 ± 0.019"}, {"sequence": "TTGTTTTAC", "switch fluorescence ratio": "1.05 ± 0.067"}, {"sequence": "TTGTTTTACT", "switch fluorescence ratio": "1.027 ± 0.0056"}, {"sequence": "TTGTTTTAGG", "switch fluorescence ratio": "0.987 ± 0.047"}, {"sequence": "TTGTTTTCTG", "switch fluorescence ratio": "1.02 ± 0.047"}, {"sequence": "TTGTTTTGAA", "switch fluorescence ratio": "1.006 ± 0.0053"}, {"sequence": "TTGTTTTGTT", "switch fluorescence ratio": "1.04 ± 0.1"}, {"sequence": "TTGTTTTTAC", "switch fluorescence ratio": "1.07 ± 0.052"}, {"sequence": "TTGTTTTTGA", "switch fluorescence ratio": "1.05 ± 0.067"}, {"sequence": "TTTAAAACAG", "switch fluorescence ratio": "1.018 ± 0.0079"}, {"sequence": "TTTAAAAGAA", "switch fluorescence ratio": "0.995 ± 0.039"}, {"sequence": "TTTAAAATAT", "switch fluorescence ratio": "0.998 ± 0.046"}, {"sequence": "TTTAAAGAGG", "switch fluorescence ratio": "0.9813 ± 0.0042"}, {"sequence": "TTTAAAGATC", "switch fluorescence ratio": "1 ± 0.021"}, {"sequence": "TTTAAATAT", "switch fluorescence ratio": "1.03 ± 0.086"}, {"sequence": "TTTAAATATG", "switch fluorescence ratio": "0.9942 ± 0.0073"}, {"sequence": "TTTAAATCTC", "switch fluorescence ratio": "0.963 ± 0.014"}, {"sequence": "TTTAAATTAA", "switch fluorescence ratio": "0.9938 ± 0.0026"}, {"sequence": "TTTAACAGTA", "switch fluorescence ratio": "1.04 ± 0.044"}, {"sequence": "TTTAACATAT", "switch fluorescence ratio": "1.022 ± 0.004"}, {"sequence": "TTTAACGATA", "switch fluorescence ratio": "1.07 ± 0.015"}, {"sequence": "TTTAACGATC", "switch fluorescence ratio": "1.01 ± 0.035"}, {"sequence": "TTTAACGGTG", "switch fluorescence ratio": "1.02 ± 0.027"}, {"sequence": "TTTAACTGG", "switch fluorescence ratio": "1.03 ± 0.036"}, {"sequence": "TTTAAGATTT", "switch fluorescence ratio": "1.01 ± 0.03"}, {"sequence": "TTTAAGCGTT", "switch fluorescence ratio": "1.054 ± 0.0066"}, {"sequence": "TTTAAGCTAA", "switch fluorescence ratio": "1.13 ± 0.23"}, {"sequence": "TTTAAGCTGT", "switch fluorescence ratio": "0.978 ± 0.049"}, {"sequence": "TTTAAGGATA", "switch fluorescence ratio": "0.9872 ± 0.0055"}, {"sequence": "TTTAAGGCCT", "switch fluorescence ratio": "1 ± 0.021"}, {"sequence": "TTTAAGGCTC", "switch fluorescence ratio": "0.994 ± 0.032"}, {"sequence": "TTTAAGGGG", "switch fluorescence ratio": "1.02 ± 0.051"}, {"sequence": "TTTAAGGGGT", "switch fluorescence ratio": "0.991 ± 0.051"}, {"sequence": "TTTAAGTAGT", "switch fluorescence ratio": "1.01 ± 0.028"}, {"sequence": "TTTAAGTTTC", "switch fluorescence ratio": "1 ± 0.025"}, {"sequence": "TTTAATACGC", "switch fluorescence ratio": "1.38 ± 0.26"}, {"sequence": "TTTAATATTA", "switch fluorescence ratio": "0.986 ± 0.015"}, {"sequence": "TTTAATCAAA", "switch fluorescence ratio": "0.988 ± 0.014"}, {"sequence": "TTTAATGGTT", "switch fluorescence ratio": "1.02 ± 0.039"}, {"sequence": "TTTAATGTCC", "switch fluorescence ratio": "0.976 ± 0.07"}, {"sequence": "TTTAATTGCA", "switch fluorescence ratio": "0.988 ± 0.038"}, {"sequence": "TTTAATTGGG", "switch fluorescence ratio": "0.983 ± 0.039"}, {"sequence": "TTTAATTTGT", "switch fluorescence ratio": "1 ± 0.019"}, {"sequence": "TTTACAAAGT", "switch fluorescence ratio": "0.994 ± 0.049"}, {"sequence": "TTTACCCACT", "switch fluorescence ratio": "1.46 ± 0.073"}, {"sequence": "TTTACCCCAT", "switch fluorescence ratio": "1.05 ± 0.032"}, {"sequence": "TTTACCCTAT", "switch fluorescence ratio": "1.06 ± 0.015"}, {"sequence": "TTTACCTCGA", "switch fluorescence ratio": "1.027 ± 0.0069"}, {"sequence": "TTTACGGGGC", "switch fluorescence ratio": "1 ± 0.017"}, {"sequence": "TTTACGGTGA", "switch fluorescence ratio": "1.02 ± 0.043"}]}]}
